Results from the domain aggregation screens of Martell et al. (2025).

Test: soluble fraction after stress (log2 fold change); higher = more stays soluble; pooled small domains, quantitative proteomics
Conditions: stress: pH 4
Outline: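 After pH 4 stress, pooled custom libraries of small protein domains were quantified with high-throughput quantitative proteomics. Aggregation propensity is taken from the fold change in each domain's soluble amount following the acid stress. The scale is log2, where higher values mean more stayed soluble.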

Sequence | soluble fraction (log2)
HMEEEDELALFLREERKNYDLTLTDVHEKTGIPQKVLKEFQWGDAQLTDRQRYTLTQYVEEAREYFQENA | -0.998
HMEEEVKVPKIKGLTEAEAKAKLKSEGLESGTARSAYSDTVEEGHIISQSIQEGTKVPKGTAVSYEVSKGK | 0.22
HMEEGKVKRMAMDMVDAFYDKVSAMVDDNNDLGRSVVDAWDDEEENPPEYMLDDETRAILVNAGKIEPE | 0.0884
HMEEHSLRKQEMLRIIEALEQLTPKEKTVVVLYYFKGVLFKDIAMLLDVTEGRISQLHTAAMGRLKKLMD | -0.632
HMEEIDLTPAEEILNKLPDNSRGYLIPTLNKIQNAYRFLPDPAMELLMEFFNVSRAEIFGVISFYPQLMI | -0.533
HMEEIPYGVISAKAGAAAYDYIKKSIELGIEKKIDGVATAPIQKEAIHMAGISYIGHTEMYQGIT | 0.0683
HMEEKEIGQTLSVKIRENVLSKLDMTRDLEDEEVKHIIEHEIWLAAKKHYISLEERNSIKRGIFNSL | -0.773
HMEELELTIDGEMVGRIDKQLGHHFDQFSRSQIQHWIEDGHVLVNGKQVKPKYKLLVGDHVQIIPEEPQK | 0.223
HMEELIIQEELANKRLDIAISLLFPELTRAHAQKLIKEGSVLVDGKPRKASYPLTAGKRLSVTLPEPE | -0.0497
HMEELPVLHLKHVVVEGESLWKLAEQYLNDGTRWQEIYMLNRENISNPDLIREGQELNIQFLQGE | -1.05
HMEENIKKDIEVPNIEGLTIDEAKKRLKEVNLNISIEDMEEKEGTEIITQQLPKAGIKVKEGVAIIAY | -0.211
HMEEPEFEPYVVRLTAIALNVRTGPGTQYPVAMVIRGGGAFTIVAEENGFGLLKSGAGWIMLQHTERV | -0.427
HMEEQELQLIQFPIASGSAWAGKAVRELILPPETLLVMLIRGTETMIPKGDTMVQEGDTAVLSASAYRDD | -1.61
HMEEQKYEYHLGDVVYLGVDKYEILGITNNIVTLYDPEFPLLNKQLDFDEFEKRVKDNYANEHLKVT | -0.545
HMEERDMKGSISDLVERYADQLTDEQLEEIVLGIKNGLLEEDVKSYFFLPAEDMRRIRTALEQVR | -1.6
HMEESEMIAFATVAHRIVGKPVEAVMRSYRNRDNIPADIAAIVSSKFTFSVTMAEASYRNPKKSYQVNSII | 0.22
HMEETLLLRESVRSALAMLAPTLRITLEMYVYRQLSPTEIALRSGVSISMVRRRLGYGLYKLRTQLIDA | -0.394
HMEFEIGQEDSKKSVKQFLYNTLRLSHGQVTALKRQERGILLNGERVFVTALLQEGDRLSLLLE | -1.24
HMEFFIIDHNGQQAGPFSFDQLVQKGISPETLVWKQGMADWNPAWKVEELKAVLEAVEANQSNQKAQ | -1.3
HMEFGEVLAQLRQKRHISQAELGRAIFVSGGTISNYEKGVHFPDVEKLLLLADYFNVTTDYLLGRT | -0.169
HMEFNQAVQDVNELSMQYAKSDVLWPEFEPKVLAFAKNELSQMPPNQWKFALQTFYNGLKQAA | -0.0767
HMEFPLSPHQYSVLRLMAQGLSNKQIAERLFLSENTVKGYVQEVLRRLGARNRLEAVMIANRRGWL | -0.606
HMEFPYISGVDVGTISNKEFARFETTKASDIVIALDKSGIPFSARFGDSEIVLTYDGSYKEEVEEIIAKV | -0.115
HMEFSYMDQGLERYRAFLETHGHGNVPESYHELKLVNFVAHIRKLYRMNLLSEERRRALDEAGFVF | -1.24
HMEFVEERRNRMLDYIGENKRADVPELARHFDVTEVTIRRDLLILEQDGKLIRTHGGAMINR | -0.278
HMEGDKEIPNVIGKSINDAKKILEQAGLKLGEVKKVNDSSVAKNVVLSTNPNAGTKVSAGDAVSITVAEG | 0.278

Sequence | soluble fraction (log2)
HMEGGLIMDRIEKGLQSGVMPDLRGLNLKDALYLLESYVQVQVIGSGGVIKQSIKTGDKFIMGSVIKLEL | 0.041
HMEGLATRLRFLRQARGLSYHALARLSGVTHTALHQIEAGKNIPGLDTAEKIAMALDVDPRWFAYGRGDPS | -0.578
HMEGPALKVWKARYLRAAILEQLLSDRWDDRGGQPIRVVVNEPTNSLLIRIPRHLWPEAEKLLQELDQR | -0.312
HMEGTEILVNIRKGMTKEEIASLLVSKGLVEDKNTFLVQTALYTSDRYPIQPGSYTLNTAQTPEEMLAVMT | -0.073
HMEGVNLTVQEAKQMAAIIAPLLKQGQSPYQIVTNHPELGISEKTLYNYIENDVFHEIAGITVMDL | -0.881
HMEHIVNELDRKVIDYLQSHYDAKLNDIAQGIGVSKATATKSIRKLVQTGIVHVVGSSGTGTSYNLTE | 0.0867
HMEHVVFEVTESGELENNTAVKHVLNSFNNKSLNLAIDDFGTGYSNLRYIRDMMFGIIKIDRLFIKDINES | 0.158
HMEIDFDKINSIFNDANKLYEEGDYFEANNLYKNIVSSNIISKDLYYNLGLSYAKIGSNGYAILWYERALN | -0.215
HMEIEEIDYGTFLQMVEDGVVEKIELTDTQIFLTSTVDNDDKVYTTGVMPDQDLTNRLIEAGVVNFGKVV | -0.956
HMEIFSIEPDSYLGSGEEIASYYREGVTVIVNMAKLSDAESLRMVDFMSGLKLALLGNIKRITKHVYLLTP | -0.966
HMEIITIVSDINGKRIDAWLSEKLENYSRSFIQKLIQNENVKVNNNIVKANYKLKNGDAVAVSIPEPV | -0.261
HMEILNYVVSDGQSGIRIDRYLSDSNEDLSRSYIQKLLKEQKVTVQGTFVKANYKVQAGDVITVEVPDMA | 0.238
HMEILPAYRDIKKEALLGNINAEFKYVNLLLEHNYIEQAFNIIEDMKTRVDDNPEFEELKSRVADAYLMY | -1.48
HMEILTLEELKRLMAKAKLKQNQISGHAGVSKQQISMILAGKRNITKDVSDNLKANLAEYFP | 0.107
HMEILVSTRRHEIASLLSRKKRVSFFELFPEKTKEYVVATFLAILEMAKAREVNITQEDTFDEIIVEEA | -1.09
HMEIPTPAELREKRIRMGLKQADVARMAGISQSMVARIESGSVDPRVSTLAKIVEVLQAAER | 0.185
HMEISLEAKMAEVREQVRGLAGINFRTLLEMQASRSNIIVTFLAILELMKIGAIQIRQEEIFGEIIIDSRD | -0.28
HMEISPGDVFKQLPGIGDDLSRRVVESLGIQSLEELESAAHDGRLEQVEGFGERRVQMVRAVLTGMLS | -1.04
HMEITTEDIAAQVASWIVRLSEDLTSTDRAALQIEFEQWQQTDSRRAEIAHKMLSLIGQAEQLRKT | -0.614
HMEKAISSLTLEEAKKRLEMVRSEKDASLQIYKETGSETARVTAENYGKEENSLLLHISEMSNIV | -0.209
HMEKFTGELSQEEKNVLDALSHEEMHVDIIIKLTKLETSAVSSTLSLLEIKGLIKNIGGQNYIK | -0.139
HMEKIIFEISEEGKRLDLYIAERTELTRTRIQQLIKDGNINVNNKKSKPSYKVEKNDFIEMIIPDE | -0.49
HMEKINLIIEEDNNLRLDKVIAMQLQELSRTQIQDMINQGLVLVNQKKEKASYKTKLNDEIEITILD | -0.382
HMEKKDTYTVKNGDSLWGIARTELGDGGRFREIYTLNADTIEAEAKKRGRSSSSEGHWIYPGSVLRLP | -0.325
HMEKKGTVVIATVKGDIHDIGKNIVKVLLENYGFDVIDLGKDVPPEAVVEAVQQSGARLVGLSALM | -0.577
HMEKKSKLVLAVLQGSDSDNTIRNLNERGFMVTVLSSTGGFLKKKSTTVMIGVEEDRLEEALDVLQKYAG | -0.617

Sequence | soluble fraction (log2)
HMEKKTILIPPVITVRALAEISQIPVNRLLQELIKNGVFTSINEKIDFDTAVIIGADLNLDIQLL | -0.984
HMEKLPRYILPGVPKVKSINISSALDGLVQDYSREFNISQKDIFQIALVEFFKKYGYHNAVKAVL | 0.0067
HMEKLSMLKIKELFRLAIEMNLSHRQIAQSLNVSHTVVNRYLKRFKKSNLSYETLLKLGDKEIISALYEH | -0.0551
HMEKPAQDVLASHREWMGEMIKAEHMTAKQVWRLLRERADIGVSYPTVKRYLRAHFQFGGPS | 0.00611
HMEKRLDYTFGLNKEQLLYLTKSIKDGDFYNVSFIDGTEKKLNRVGSTKEVHKYVNFLMTNDGIVKK | 0.0133
HMEKSLKELAQGVGQKVLTSGRPYHFDPMSAMERRVVHMTLMEMDGLRTESEGEGRFRHVVVFPA | -0.208
HMEKTEQMQVILDYIARYGEINNEKVQEILGVKRTRAYTILKQMVENGFVTTNGRGEEKKYYSIR | -0.33
HMEKTIQIYDNIIIKDFAEKMEVSPSQVITKLIGLGVMANLNQPIDINSAVIVGKEFGFNVESM | -0.952
HMEKVLPFEFERKFKTNHTAWDFFSNQAPPSYRKTVIHWILSAKQEITRISRLEKLIAASEQQKRI | -0.31
HMEKYIVNQEEQGKRLDIYVVNKSSELTRTAVQRLIEQEHILVNGRKQKASYKVLEGDIITIERV | -0.649
HMEKYTDDLEIAAEIARLETLMEGNGRVLIRPSGTEPLVRVMIEGNDIEQITKLAEDLAALLNKRF | -0.842
HMELDFNSVYRQLNHEQKQAYQSIKSVLEQKISGSELDKKLKQAQQAFVAKFKENPNFEVPK | 0.22
HMELDIGKKAIVIEKIDPEAGTGRVRIEGVDWGAKTADSSVIEKGETVVVKAKGAAFVTVAK | 0.0671
HMELEAFPNPTDMFLSFTTKEKTPLAIYDINGKQVLYVEQITSSSKINVSKLSEGVYFAKTNQGTVKWVK | -0.46
HMELEQLKSQLTGFLKANREQIFTAQNLADGLRMTDSQGYKQVVNALNASVRDGDVIDIKNGYQYNKN | -0.0153
HMELEWENYSLAGEIKTTVMLYQNRRNGLPEEAKQKADALMKQLKQAVIENDAQKVEKIDDALTALLFE | -0.249
HMELGYTPNNLRSVRAKYGLTQKQVAEITGLKTWHPVNRWEAPVEAAYHADMPHTKWLKLLDELSSR | -0.0144
HMELKYIDYDEALVVYAKTVTASGGGLSGVKDEGGIRKVLDFVQNDLYYPTFVDKLTYLVFGL | -0.155
HMELLPAERRQQLVDWFKSNQAGTSQDLARMFGISVSTIRRDLDLLASEGLVKRTHGGAVSIR | 0.2
HMELLPFEFARANRVLLRVNESDLVVSPDANHSAVTEILRLNNNIETIKSVDAEAFDKILSSIYSG | -2
HMELLSVPSRLGTFFLGGEAGHIIRLYLPGDPTPRIAEHETPVLSEARRQLLEYLAGRRTAFSFPL | -0.223
HMELNEIEFENLKESIIIHLEKESLSPHELVKHIQTIHPDKVTAVIQWMLENGFIKTDAGGQLTLVSK | -0.485
HMELNELTSRELMVAEQVARGASNREISEALSISERTVKAHLSAAFEKLGVRDRVQLALAMNNIPT | -0.886
HMELNKNDLKIIKNISHIYPYFTPVKILQLILSKKFKTIDYNKILKSTSILTTDRSHLYYILNN | 0.22
